Measured values reported in the Immune Epitope Database (IEDB).

Tests used:
Test in all cases: IEDB peptide-MHC binding, purified MHC/competitive/radioactivity; filed as Kd, often an IC50 or EC50 that approximates it; ≥ and ≤ were set here for values at or beyond the usual limits of such assays
HLA-A*02:03 = target: HLA-A*02:03
HLA-A*03:01 = target: HLA-A*03:01
HLA-A*11:01 = target: HLA-A*11:01
HLA-A*31:01 = target: HLA-A*31:01
HLA-A*33:01 = target: HLA-A*33:01
HLA-A*68:01 = target: HLA-A*68:01
HLA-A*02:06 = conditions: source organism: Dengue virus 4 Philippines/H241/1956
[1] = source organism: SARS coronavirus Tor2
[2] = source organism: Vaccinia virus WR
[3] = source organism: SARS coronavirus ZJ0301
[4] = source organism: Mammarenavirus whitewaterense
[5] = source organism: Mammarenavirus brazilense
[6] = source organism: Mammarenavirus juninense
[7] = source organism: Mammarenavirus machupoense
[8] = source organism: Lymphocytic choriomeningitis virus (strain Armstrong)

Row | Sequence | Kd (HLA-A*03:01; [2]) | Kd (HLA-A*11:01; [2]) | Kd (HLA-A*31:01; [2]) | Kd (HLA-A*33:01; [2]) | Kd (HLA-A*68:01; [2]) | further results
1 | TLALSLTFI |  |  |  |  |  | Kd (HLA-A*02:03; source organism: Dengue virus 4 Philippines/H241/1956): 1.04 nM
2 | NLCTHSFRK |  |  |  |  |  | Kd (HLA-A*03:01; [1]): 2430 nM; Kd (HLA-A*11:01; [1]): 7900 nM; Kd (HLA-A*31:01; [1]): 13600 nM; Kd (HLA-A*33:01; [1]): 9700 nM; Kd (HLA-A*68:01; [1]): ≥ 24400 nM
3 | ITLDILTEI |  |  |  |  |  | Kd (HLA-A*02:06): 8.88 nM
4 | NATFFIFNK |  |  |  |  |  | Kd (HLA-A*03:01; [1]): 386 nM; Kd (HLA-A*11:01; [1]): 87.3 nM; Kd (HLA-A*31:01; [1]): 1710 nM; Kd (HLA-A*33:01; [1]): 87.3 nM; Kd (HLA-A*68:01; [1]): 19.5 nM
5 | GLKIEEIEK | 5630 nM | 6510 nM | 13200 nM | 16300 nM | 16800 nM | 
6 | LLNSNALLR |  |  |  |  |  | Kd (HLA-A*03:01; [3]): 14.7 nM; Kd (HLA-A*11:01; [3]): 222 nM; Kd (HLA-A*31:01; [3]): 148 nM; Kd (HLA-A*33:01; [3]): 6980 nM; Kd (HLA-A*68:01; [3]): 687 nM
7 | NFLRSIAMLK | 74.6 nM | 316 nM | 9.91 nM | 70 nM | 272 nM | 
8 | LFYPSMFTLR | 1590 nM | 7330 nM | 1.33 nM | 28.9 nM | 2.66 nM | 
9 | NISFKSINK | 14.9 nM | 41.3 nM | 9770 nM | 3180 nM | 119 nM | 
10 | PMPCMINDTH |  |  |  |  |  | Kd (HLA-A*03:01; [4]): ≥ 70000 nM; Kd (HLA-A*11:01; [4]): ≥ 69700 nM; Kd (HLA-A*31:01; [4]): ≥ 70000 nM; Kd (HLA-A*33:01; [4]): ≥ 70000 nM; Kd (HLA-A*68:01; [4]): ≥ 70100 nM
11 | LLSCIRNASK | 66.2 nM | 29.3 nM | 822 nM | 16700 nM | 195 nM | 
12 | NFITKEIKNR | ≥ 70100 nM | ≥ 69800 nM | 1070 nM | 168 nM | 526 nM | 
13 | NYILCYRKPH |  |  |  |  |  | Kd (HLA-A*03:01; [5]): 5310 nM; Kd (HLA-A*11:01; [5]): ≥ 69700 nM; Kd (HLA-A*31:01; [5]): 11600 nM; Kd (HLA-A*33:01; [5]): 2200 nM; Kd (HLA-A*68:01; [5]): ≥ 24500 nM
14 | LLPSTDVNK | 5010 nM | 5540 nM | 17300 nM | ≥ 77700 nM | 6950 nM | 
15 | GAVVKSDNK | 15400 nM | 782 nM | ≥ 77900 nM | ≥ 77700 nM | 12500 nM | 
16 | RLSAAIGKA |  |  |  |  |  | Kd (HLA-A*02:03; source organism: Dengue virus 1 Singapore/S275/1990): 70.7 nM
17 | IIGPMFSGK | 0.73 nM | 1.79 nM | 6320 nM | 7360 nM | 100 nM | 
18 | ELGELIGVNY | ≥ 70100 nM | ≥ 69800 nM | ≥ 70000 nM | ≥ 70000 nM | ≥ 37600 nM | 

Row | Sequence | Kd (HLA-A*03:01; [2]) | Kd (HLA-A*11:01; [2]) | Kd (HLA-A*31:01; [2]) | Kd (HLA-A*33:01; [2]) | Kd (HLA-A*68:01; [2]) | further results
19 | EKYGHLCKYH |  |  |  |  |  | Kd (HLA-A*03:01; [6]): ≥ 70000 nM; Kd (HLA-A*11:01; [6]): ≥ 69700 nM; Kd (HLA-A*31:01; [6]): ≥ 70000 nM; Kd (HLA-A*33:01; [6]): ≥ 70000 nM; Kd (HLA-A*68:01; [6]): ≥ 70100 nM
20 | GVIRSIFAR |  |  |  |  |  | Kd (HLA-A*03:01; [1]): 1300 nM; Kd (HLA-A*11:01; [1]): 0.618 nM; Kd (HLA-A*31:01; [1]): 1.02 nM; Kd (HLA-A*33:01; [1]): 118 nM; Kd (HLA-A*68:01; [1]): 0.519 nM
21 | ISGIGTFLHY | 355 nM | 364 nM | ≥ 60500 nM | 13800 nM | 19700 nM | 
22 | AFNDDGIYIR | ≥ 70100 nM | 18100 nM | 618 nM | 3210 nM | 1690 nM | 
23 | GIEFADNDR | 2420 nM | 1740 nM | 7550 nM | 6540 nM | 762 nM | 
24 | FQPESPARL |  |  |  |  |  | Kd (HLA-A*02:06): 36.9 nM
25 | AQYKCVTIK | 15.7 nM | 37.4 nM | 666 nM | 10200 nM | 2180 nM | 
26 | TMLRNSELCH |  |  |  |  |  | Kd (HLA-A*03:01; [7]): 10200 nM; Kd (HLA-A*11:01; [7]): ≥ 69700 nM; Kd (HLA-A*31:01; [7]): 8820 nM; Kd (HLA-A*33:01; [7]): ≥ 70000 nM; Kd (HLA-A*68:01; [7]): ≥ 70100 nM
27 | QILEENMEV |  |  |  |  |  | Kd (HLA-A*02:06): 30.5 nM
28 | QVKDNIISR | 2550 nM | 185 nM | 908 nM | 64.8 nM | 11.3 nM | 
29 | TLGNFSWFPH |  |  |  |  |  | Kd (HLA-A*03:01; [8]): 2150 nM; Kd (HLA-A*11:01; [8]): 1380 nM; Kd (HLA-A*31:01; [8]): 570 nM; Kd (HLA-A*33:01; [8]): 12600 nM; Kd (HLA-A*68:01; [8]): 8980 nM
30 | FLAHYIGTS |  |  |  |  |  | Kd (HLA-A*02:03; source organism: Dengue virus 3 Martinique/1243/1999): 10.7 nM
31 | TTTIKPVSYK |  |  |  |  |  | Kd (HLA-A*03:01; [1]): 11.6 nM; Kd (HLA-A*11:01; [1]): 20.4 nM; Kd (HLA-A*31:01; [1]): 1460 nM; Kd (HLA-A*33:01; [1]): 10600 nM; Kd (HLA-A*68:01; [1]): 99.1 nM
32 | AMENLKAMLY | 144 nM | 222 nM | ≥ 41900 nM | ≥ 70000 nM | 2790 nM | 
33 | IMFEQYFIY | 3.67 nM | ≥ 77900 nM | 229 nM | 3260 nM | 205 nM | 
34 | FTFGDTALY | 612 nM | 192 nM | 14300 nM | ≥ 50000 nM | 2.27 nM | 
35 | SMASLKSLY | 1.21 nM | 38.4 nM | 692 nM | 16100 nM | 26.5 nM | 
36 | VTIKYSNDNR | 10300 nM | 53.1 nM | 402 nM | 6710 nM | 2.33 nM | 
